The target in the assay is SARS-CoV-2 spike receptor-binding domain (RBD), recombinant, produced in house (SARS-CoV-2) (UniProt P0DTC2). The assay is described as follows: SEC.

Drawing on article PMC8393265, this text covers stoichiometry N for 1 substance.

As for “SARS-CoV-2 spike receptor-binding domain (RBD), recombinant, produced in house (from UniProt P0DTC2) (domain or fragment)”, the stoichiometry N was determined as 3.

What is called stoichiometry N is the number of molecules, sites or subunits per partner or assembly.
